Measured values taken from FireProtDB (doi:10.1021/bi992119u).

Conditions: Pseudomonas putida; pH 7; 25 °C; Urea; CD; Sodium phosphate 25 mM; reversible: yes; whole UniProt chain shown

B1: Steroid Delta-isomerase wild type, P07445 (protein)
chain: MNLPTAQEVQGLMARYIELVDVGDIEAIVQMYADDATVEDPFGQPPIHGREQIAAFYRQGLGGGKVRACLTGPVRASHNGCGAMPFRVEMVWNGQPCALDVIDVMRFDEHGRIQTMQAYWSEVNLSVREPQ
denaturant m value: 3.39 kcal/mol/M | denaturant midpoint (higher = more stable): 5.22 M | unfolding free energy: 24.3 kcal/mol
